Among the data in patent US20060153798A1 are GH receptor mRNA expression levels in the liver (quantitative RT-PCR), 60 minutes after 30 µg subcutaneous rGH (% of level prior to administration) and IGF-I-BP3 mRNA expression levels in the liver (quantitative RT-PCR, % of control), 60 minutes after 30 µg subcutaneous rGH values, retold here.

For this assay, the target named is growth hormone (GH) receptor (mouse) (UniProt P16882). Briefly: cell-based or functional assay.

As to “recombinant rat growth hormone (from UniProt P01244 27-216) (ligand)”, the GH receptor mRNA expression levels in the liver (quantitative RT-PCR), 60 minutes after 30 µg subcutaneous rGH (% of level prior to administration) was 65 and the IGF-I-BP3 mRNA expression levels in the liver (quantitative RT-PCR, % of control), 60 minutes after 30 µg subcutaneous rGH worked out at 250 % increase.
